In publication doi:10.1101/2025.09.15.676363:

Tests used:
[1] = target: WT-Dsg2, complete extracellular region (EC1-5) of human desmoglein-2 (human) (UniProt Q14126); assay: single-molecule AFM binding assay
[2] = target: W2A-Dsg2, complete extracellular region (EC1-5) of human desmoglein-2 (human) (UniProt Q14126); assay: single-molecule AFM binding assay
[3] = target: Full-length I175D Pcad fused to a C-terminal mCherry tag (human); assay: co-IP
[4] = target: Full-length W2A Pcad fused to a C-terminal mCherry tag (human); assay: co-IP

Substance | binding probability [1] | binding probability [2] | Dsg2 binding capacity relative to WT-Pcad (Dsg2/Pcad pull-down ratio) [3] | Dsg2 binding capacity relative to WT-Pcad (Dsg2/Pcad pull-down ratio) [4]
W2A-Pcad, complete extracellular region (EC1-5) of human P-cadherin (from UniProt P22223 25-654) (domain or fragment) | 4% |  |  | 
A5P-Pcad, complete ectodomain of human P-cadherin (from UniProt P22223 25-654) (domain or fragment) | 4.5% |  |  | 
WT-Pcad, complete extracellular region (EC1-5) of human P-cadherin (from UniProt P22223 25-654) (domain or fragment) | 8% | 4% |  | 
Desmoglein-2 (Dsg2), endogenous in A431 cells (from UniProt Q14126 50-1118) (natural protein) |  |  | 80% | 25%
I175D-Pcad, complete extracellular region (EC1-5) of human P-cadherin (from UniProt P22223 25-654) (domain or fragment) | 7.8% |  |  | 
